Test system: surfactant protein C (SP-C)
Assay: qRT-PCR of SP-C mRNA in day 24 pluripotent stem cell differentiation cultures
Format: cell-based, murine
Details: KGF alone; start on day 0 of differentiation compared to later supplementation
Description: This method is based on our 2008 published differentiation protocol^3. To initiate embryoid body (EB) formation “hanging drops” composed of 6×10^2 cells in 20 μl of differentiation medium were generated (day 0 of differentiation). At day 3 of differentiation, EBs (100 EBs/dish) were transferred to non-adherent petri dishes (Greiner) and cultivated in suspension for two additional days. At day 5 of differentiation, 10 EBs/well were seeded on a 0.1% gelatin-coated 6-well culture dish and cultured until day 24 of differentiation. From day 0 to 7 the basal differentiation medium was composed of Iscove's Modified Dulbecco's Medium (IMDM, Invitrogen), 0.2 mM L-glutamine, 0.1 mM β-mercaptoethanol, 0.1 mM non-essential amino acid stock supplemented with 15% FCS and from day 7 to 24 supplemented with 15% serum replacement (Knockout™ SR, Invitrogen). […]
The differentiation medium was replaced by fresh medium every two to three days. The differentiation was stopped on day 24 and differentiation cultures were analyzed for the presence of lung epithelial cells.
qRT-PCR was used to quantify mRNA expression of typical lung epithelial markers, in particular for bronchial/bronchiolar and alveolar epithelial cells. […]

B1: KGF: recombinant human keratinocyte growth factor (Amgen), also referred to as fibroblast growth factor-7 (protein, UniProt P21781 32-194, looked up)
Fibroblast growth factor 7: CNDMTPEQMATNVNCSSPERHTRSYDYMEGGDIRVRRLFCRTQWYLRIDKRGKVKGTQEMKNNYNIMEIRTVAVGIVAIKGVESEFYLAMNKEGKLYAKKECNEDCNFKELILENHYNTYASAKWTHNGGEMFVALNQKGIPVRGKKTKKEQKTAHFLPMAIT
For B1, the “SP-C expression by start of KGF supplementation” value was “highest expression”.

Source: patent publication US9765303B2, “Method for the production of differentiated respiratory epithelial cells” (MEDIZINISCHE HOCHSCHULE HANNOVER, priority 2011, dated 2017)
